Experimental data taken from US7727960B2, “C5a receptor antagonists” (Jerini AG, priority 2003, dated 2010).

molecular target: T1, human C5aR (CD88) (human, UniProt P21730 1-350); assay: cell-based or functional assay
T1 sequence (looked up): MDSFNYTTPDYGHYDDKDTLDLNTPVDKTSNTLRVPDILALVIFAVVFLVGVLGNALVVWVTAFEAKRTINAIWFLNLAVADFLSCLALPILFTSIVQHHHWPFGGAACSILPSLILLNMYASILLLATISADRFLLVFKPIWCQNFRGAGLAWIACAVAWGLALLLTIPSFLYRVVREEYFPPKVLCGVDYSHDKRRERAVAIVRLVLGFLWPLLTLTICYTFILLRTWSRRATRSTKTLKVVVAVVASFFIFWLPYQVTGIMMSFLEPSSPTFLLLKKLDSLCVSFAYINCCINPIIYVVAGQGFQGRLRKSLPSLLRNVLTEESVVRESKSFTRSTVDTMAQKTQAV

Substance | IC50 activity group, enzyme release assay
Ac-Phe-Orn-Pro-hle-6FW-Phe-NH2 (peptide) | < 200 nM
Ac-Phe-Orn-Pro-hle-Bta-5Ff-NH2 (peptide) | < 200 nM
Ac-Phe-Orn-Pro-hle-Bta-Chg-NH2 (peptide) | < 200 nM
Ac-Phe-Orn-Pro-hle-Bta-Egy-NH2 (peptide) | < 200 nM
Ac-Phe-Orn-Pro-hle-Bta-Pcf-NH2 (peptide) | < 200 nM
Ac-Phe-Orn-Pro-hle-Bta-Phe-NH2 (peptide) | < 20 nM
Ac-Phe-Orn-Pro-hle-Bta-Tyr-NH2 (peptide) | < 200 nM
Ac-Phe-Orn-Pro-hle-Bta-phe-OH (peptide) | < 200 nM
Ac-Phe-Orn-Pro-hle-Dff-Phe-NH2 (peptide) | < 200 nM
Ac-Phe-Orn-Pro-hle-Egz-Phe-NH2 (peptide) | < 200 nM
Ac-Phe-Orn-Pro-hle-Mcf-Cha-NH2 (peptide) | < 50 nM
Ac-Phe-Orn-Pro-hle-Mcf-Phe-NH2 (peptide) | < 200 nM
Ac-Phe-Orn-Pro-hle-Otf-Phe-NH2 (peptide) | < 200 nM
Ac-Phe-Orn-Pro-hle-Pff-2Ni-NH2 (peptide) | < 200 nM
Ac-Phe-Orn-Pro-hle-Pff-Cha-NH2 (peptide) | < 200 nM
Ac-Phe-Orn-Pro-hle-Pff-Eaa-NH2 (peptide) | < 200 nM
Ac-Phe-Orn-Tic-cha-Trp-Phe-NH2 (peptide) | < 200 nM

Next, values leading:

IC50 activity group, enzyme release assay | Substance
< 50 nM | Ac-Phe-Orn-Pro-ctb-Pff-Phe-NH2 (peptide)
< 50 nM | Ac-Phe-Orn-Pro-hle-1Ni-Phe-NH2 (peptide)
< 200 nM | Ac-Phe-Orn-Pro-hle-Bta-1Ni-NH2 (peptide)
< 200 nM | Ac-Phe-Orn-Pro-hle-Bta-2Ni-NH2 (peptide)
< 200 nM | Ac-Phe-Orn-Pro-hle-Bta-Aic-NH2 (peptide)
< 200 nM | Ac-Phe-Orn-Pro-hle-Bta-Cha-NH2 (peptide)
< 200 nM | Ac-Phe-Orn-Pro-hle-Bta-Eaa-NH2 (peptide)
< 200 nM | Ac-Phe-Orn-Pro-hle-Bta-Pff-NH2 (peptide)
< 200 nM | Ac-Phe-Orn-Pro-hle-Eaa-Phe-NH2 (peptide)
< 200 nM | Ac-Phe-Orn-Pro-hle-Egc-Phe-NH2 (peptide)
< 200 nM | Ac-Phe-Orn-Pro-hle-Egy-Phe-NH2 (peptide)
< 200 nM | Ac-Phe-Orn-Pro-hle-Mcf-2Ni-NH2 (peptide)
< 200 nM | Ac-Phe-Orn-Pro-hle-Mcf-Pff-NH2 (peptide)
< 200 nM | Ac-Phe-Orn-Pro-hle-Mff-Phe-NH2 (peptide)
< 200 nM | Ac-Phe-Orn-Pro-hle-Mmy-Phe-NH2 (peptide)
< 200 nM | Ac-Phe-Orn-Pro-hle-Ocf-Phe-NH2 (peptide)
< 200 nM | Ac-Phe-Orn-Pro-hle-Off-Phe-NH2 (peptide)
< 200 nM | Ac-Phe-Orn-Pro-hle-Pff-Mmy-NH2 (peptide)
< 200 nM | Ac-Phe-Orn-Pro-hle-Pff-Pff-NH2 (peptide)
< 200 nM | Ac-Phe-Orn-Pro-hle-Pff-Phe-NH2 (peptide)
< 200 nM | Ac-Phe-Orn-Pro-hle-Tff-Phe-NH2 (peptide)
< 200 nM | Ac-Phe-Orn-Pro-omf-Bta-Phe-NH2 (peptide)
< 50 nM | Ac-Phe-Orn-Ser-cha-Bta-Phe-NH2 (peptide)
< 2000 nM | Ac-Phe-Orn-Tic-cha-Trp-Phe-OH (peptide)
